Reference: article PMC12098869, “An mRNA-display derived cyclic peptide scaffold reveals the substrate binding interactions of an N-terminal cysteine oxidase” (Nature Communications, 2025)
Positions count from the first letter of the chain named. Each block holds one binder with its values, some of them ahead of it.

Columns and labels:
Experiment in all cases: SPR; multi-cycle, equilibrium steady state affinity 1:1 binding model; biotinylated ADO or variant immobilised on a Biotin CAP chip (~2500-3000 RU), peptide injected; 4 °C; 20 mM HEPES pH 7.5, 500 mM NaCl, 10 mM DTT, 0.1% (v/v) tween-20; 50 μL/minute
Conditions in all cases: both partners purified
[1] = target: T1, ADO-Y212F, biotinylated (pQE80L-Navi-ADO) (human, UniProt Q96SZ5 1-270, Y212F, biotin on the Avi tag)
T1 construct: Tag as in Dm1; source: E. coli Rosetta2(DE3), purified (Ni-NTA, SEC); not shown: Avi tag, N-terminal, kept; His6, N-terminal, kept
T1 sequence (looked up): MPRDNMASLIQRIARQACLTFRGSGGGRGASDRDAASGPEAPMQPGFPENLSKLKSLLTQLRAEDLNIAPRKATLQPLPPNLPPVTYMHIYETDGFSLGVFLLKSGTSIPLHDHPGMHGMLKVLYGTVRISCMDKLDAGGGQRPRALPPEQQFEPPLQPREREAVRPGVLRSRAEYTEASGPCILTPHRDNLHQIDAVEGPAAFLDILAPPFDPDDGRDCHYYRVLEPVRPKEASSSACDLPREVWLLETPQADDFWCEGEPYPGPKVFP
How it was run: (§1)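 Biotinylated full-length human ADO (wild type or engineered forms) was made in E. coli with a His tag, then purified by nickel affinity and gel filtration. It was captured on a Biotin CAP chip at about 2500–3000 RU in a Biacore T200, and peptides were flowed over it. The run was at 4 °C in HEPES pH 7.5 buffer with 500 mM NaCl, DTT and tween-20, at 50 μL/minute. Kd came from a 1:1 steady-state fit of multi-cycle equilibrium responses.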

[2] = target: T2, ADO-Y87F, biotinylated (pQE80L-Navi-ADO) (human, UniProt Q96SZ5 1-270, Y87F, biotin on the Avi tag)
T2 construct: Tag as in Dm1; source: E. coli Rosetta2(DE3), purified (Ni-NTA, SEC); not shown: Avi tag, N-terminal, kept; His6, N-terminal, kept
T2 sequence (looked up): T1 sequence (looked up) with Y87F, F212Y
How it was run: as §1

[3] = target: T3, ADO-F101A, biotinylated (pQE80L-Navi-ADO) (human, UniProt Q96SZ5 1-270, F101A, biotin on the Avi tag)
T3 construct: Tag as in Dm1; source: E. coli Rosetta2(DE3), purified (Ni-NTA, SEC); not shown: Avi tag, N-terminal, kept; His6, N-terminal, kept
T3 sequence (looked up): T1 sequence (looked up) with F101A, F212Y
How it was run: as §1

[4] = target: T4, ADO-Y222A, biotinylated (pQE80L-Navi-ADO) (human, UniProt Q96SZ5 1-270, Y222A, biotin on the Avi tag)
T4 construct: Tag as in Dm1; source: E. coli Rosetta2(DE3), purified (Ni-NTA, SEC); not shown: Avi tag, N-terminal, kept; His6, N-terminal, kept
T4 sequence (looked up): T1 sequence (looked up) with F212Y, Y222A
How it was run: as §1

[5] = target: T5, ADO-Y87A, biotinylated (pQE80L-Navi-ADO) (human, UniProt Q96SZ5 1-270, Y87A, biotin on the Avi tag)
T5 construct: Tag as in Dm1; source: E. coli Rosetta2(DE3), purified (Ni-NTA, SEC); not shown: Avi tag, N-terminal, kept; His6, N-terminal, kept
T5 sequence (looked up): T1 sequence (looked up) with Y87A, F212Y
How it was run: as §1

Kd [1]: 9.2 µM
Kd [2]: 320 nM
Kd [3]: 37 µM
Kd [4]: 1000 nM
Kd [5]: 4200 nM
B1: IL32_(2-15), synthetic peptide corresponding to the methionine excised N-terminus of IL32, residues 2-15 (peptide, UniProt P24001 2-15, looked up)
peptide: CFPKVLSDDMKKLK
notes: Interleukin 32 (IL32), residues 2-15, N-terminal Cys; also called IL32 peptide; source: synthetic peptide

Kd [1]: 24 µM
Kd [2]: 340 nM
Kd [3]: 47 µM
Kd [4]: 4700 nM
Kd [5]: 1700 nM
B2: RGS5_(2-15), synthetic peptide corresponding to the methionine excised N-terminus of RGS5, residues 2 to 15 (peptide, UniProt O15539 2-15, looked up)
peptide: CKGLAALPHSCLER
notes: Regulator of G-protein signalling 5 (RGS5), residues 2 to 15, N-terminal Cys; also called RGS5 peptide; source: synthetic peptide
